Data as given in patent US20250215089A1 (HARBOUR BIOMED SHANGHAI, published 2025).
Several values for one entry are separate records, joined by “and”; a condition that tells them apart may be missing. Identical values can stand only once.

B1: PR000960 (antibody, human IgG1, V domains shown)
VH: QVQLVESGGGVVQPGMSLRLSCAASGFNFSNYGMYWVRQAPGKGQEWVAIIWYDGTKKHYADSVKGRFTISRDNSKNTLYLEMNSLRVEDTAVYYCAKNRAIFGVVPDASDIRGQGTMVTVSS
notes: Fully human heavy-chain-only antibody (HCAb): VH fused to human IgG1 Fc; no light chain
B2: PR005878 (antibody, human IgG1, V domains shown)
VH: QVQLVESGGGVVQPGMSLRLSCAASGFTFSSYGMYWVRQAPGKGQEWVASIRYTGTEKHYADSVKGRFTISRDNSKNTLYLEMNSLRVEDTAVYYCAKNRALFGVIPDDSDIRGQGTMVTVSS
notes: HCAb; human IgG1 Fc; no light chain
B3: PR006245 (antibody, human IgG1, V domains shown)
VH: QVQLVESGGGVVQPGMSLRLSCAASGFDFSSYGMYWVRQAPGKGQEWVASIRYTGTEKHYADSVKGRFTISRDNSKNTLYLEMNSLRVEDTAVYYCAKNRAIFGVVPDASDIRGQGTMVTVSS
notes: as for B2
B4: PR006247 (antibody, human IgG1, V domains shown)
VH: QVQLVESGGGVVQPGMSLRLSCAASGFDFSSYGMYWVRQAPGKGQEWVASIRYTGTEKHYADSVKGRFTISRDNSKNTLYLEMNSLRVEDTAVYYCAKNRALFGVIPDASDIRGQGTMVTVSS
notes: as for B2
B5: PR006248 (antibody, human IgG1, V domains shown)
VH: QVQLVESGGGVVQPGMSLRLSCAASGFDFSSYGMYWVRQAPGKGQEWVASIRYTGTEKHYADSVKGRFTISRDNSKNTLYLEMNSLRVEDTAVYYCAKNRALFGVIPDDSDIRGQGTMVTVSS
notes: as for B2
B6: PR002082 (antibody, human IgG1, V domains shown)
VH: QVQLVESGGGVVQPGMSLRLSCAASGFTFSSYGMYWVRQAPGKGQEWVAIIWYDGTKKHYADSVKGRFTISRDNSKNTLYLEMNSLRVEDTAVYYCAKNRAIFGVVPDASDIRGQGTMVTVSS
notes: HCAb; PTM variant of PR000960 (N28T, N31S); human IgG1 Fc; no light chain
B7: PR006246 (antibody, human IgG1, V domains shown)
VH: QVQLVESGGGVVQPGMSLRLSCAASGFDFSSYGMYWVRQAPGKGQEWVASIRYTGTEKHYADSVKGRFTISRDNSKNTLYLEMNSLRVEDTAVYYCAKNRAIFGVIPDDSDIRGQGTMVTVSS
notes: as for B2

Key:
[1] = target: T1, human PD-L1 (human, UniProt Q9NZQ7 19-290); experiment: cell-based or functional assay
T1 sequence (Q9NZQ7 19-290): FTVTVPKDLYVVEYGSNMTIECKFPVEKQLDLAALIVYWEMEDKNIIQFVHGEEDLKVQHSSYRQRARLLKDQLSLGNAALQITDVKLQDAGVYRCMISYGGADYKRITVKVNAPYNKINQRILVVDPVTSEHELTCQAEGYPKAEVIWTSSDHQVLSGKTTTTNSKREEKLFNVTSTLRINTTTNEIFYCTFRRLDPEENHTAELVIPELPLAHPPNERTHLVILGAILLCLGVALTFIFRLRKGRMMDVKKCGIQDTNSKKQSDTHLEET

[2] = target: T1, human PD-L1; experiment: FACS, CHO-K1/hPD-L1 cells
Method: Specifically, the cells expressing PD-L1 were digested and resuspended in PBS buffer containing 2% BSA. The cells were adjusted to a cell density of 1×10⁶ cells/mL, respectively. The cells were seeded in a 96-well V-bottom plate (Corning, #3894) at 100 μL/well, and the antibody to be tested at 2×final concentration with 4-fold concentration gradient dilution was then added at 100 μL/well. The cells were incubated at 4° C. for 2 hours in the dark. After the incubation, the cells were rinsed twice by adding pre-chilled PBS containing 2% BSA at 100 μL/well, and centrifuged at 500 g at 4° C. for 5 minutes, and the supernatant was discarded. […] The cells were washed twice by adding pre-chilled PBS containing 2% BSA at 100 µL/well, and centrifuged at 500 g at 4° C. for 5 minutes, and the supernatant was discarded. Finally, the cells were resuspended in pre-chilled PBS buffer containing 2% BSA at 200 μL/well. The fluorescence signal values were read using a BD FACS CANTOII flow cytometer or ACEA NovoCyte flow cytometer, and the data were processed and analyzed using FlowJo v10 software (FlowJo, LLC).
Data processing and graphical analysis were performed using GraphPad Prism 8 software. The binding curve of the antibody to the target cell and parameters, such as EC₅₀ value were obtained by four-parameter nonlinear fitting.

Row | Binder | EC50, Jurkat-NFAT-hPD1 reporter [1] | Maximum (RLU), Jurkat-NFAT-hPD1 reporter [1] | EC50 [2] | Maximum MFI [2]
1 | B1 | 0.31 nM | 18400 RLU | 0.79 nM | 23700 MFI
2 | B2 | 0.166 nM | 13400 RLU | 1.08 nM | 419000 MFI
3 | B3 | 0.151 nM | 13800 RLU | 0.964 nM | 405000 MFI
4 | B4 | 0.15 nM | 13400 RLU | 1.01 nM | 410000 MFI
5 | B5 | 0.121 nM | 14100 RLU | 0.606 nM | 404000 MFI
6 | B6 | 0.217 nM | 12100 RLU | 0.86 nM and 1.31 nM | –
7 | B7 | 0.132 nM | 13700 RLU | 0.764 nM | 396000 MFI
